From US20090191623A1 come the findings set out here.

This assay concerns the target azurin from Pseudomonas aeruginosa (Pseudomonas aeruginosa) (UniProt P00282). Put plainly: SPR equilibrium titration, azurin immobilised on CM5.

Sequence of azurin from Pseudomonas aeruginosa (Pseudomonas aeruginosa) (P00282 21-148 limits assumed): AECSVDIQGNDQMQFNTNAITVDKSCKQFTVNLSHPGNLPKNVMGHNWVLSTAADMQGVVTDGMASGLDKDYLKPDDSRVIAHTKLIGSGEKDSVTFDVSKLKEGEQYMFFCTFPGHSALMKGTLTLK

Consider “NCAM (from UniProt P13591 20-718) (receptor)”, for which the Kd came to 20 nM.
